Patent US20250281611A1 (BIOSCEPTRE AUST, published 2025)

T1: CD37 (UniProt P11049 1-281, limits assumed)
T1 construct: whole, on cells
T1 sequence (looked up): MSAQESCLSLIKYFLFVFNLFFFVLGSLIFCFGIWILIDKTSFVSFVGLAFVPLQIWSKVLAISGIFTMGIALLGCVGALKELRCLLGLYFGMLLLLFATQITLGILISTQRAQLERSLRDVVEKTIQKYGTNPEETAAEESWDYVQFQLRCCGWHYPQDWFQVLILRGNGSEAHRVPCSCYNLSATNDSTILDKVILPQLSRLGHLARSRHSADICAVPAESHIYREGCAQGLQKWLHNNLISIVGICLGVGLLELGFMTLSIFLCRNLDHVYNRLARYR

T2: CD19 (UniProt P15391 20-556, limits assumed)
T2 construct: whole, on cells; also called CD19 on JeKo-1
T2 sequence (looked up): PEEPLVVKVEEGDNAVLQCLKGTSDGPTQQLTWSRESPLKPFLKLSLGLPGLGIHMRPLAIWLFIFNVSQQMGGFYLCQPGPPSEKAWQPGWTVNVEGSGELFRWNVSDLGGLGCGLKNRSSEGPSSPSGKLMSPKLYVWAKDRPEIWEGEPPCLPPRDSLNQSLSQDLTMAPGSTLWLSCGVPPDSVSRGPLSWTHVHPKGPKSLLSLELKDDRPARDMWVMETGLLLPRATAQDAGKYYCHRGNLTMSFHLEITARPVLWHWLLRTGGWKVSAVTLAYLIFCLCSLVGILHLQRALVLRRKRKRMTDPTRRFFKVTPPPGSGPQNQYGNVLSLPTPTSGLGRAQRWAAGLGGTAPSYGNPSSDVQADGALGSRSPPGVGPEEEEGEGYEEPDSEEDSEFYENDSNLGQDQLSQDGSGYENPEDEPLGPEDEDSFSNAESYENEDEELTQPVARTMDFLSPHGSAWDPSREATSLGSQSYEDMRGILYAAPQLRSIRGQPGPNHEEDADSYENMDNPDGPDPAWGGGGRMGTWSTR

T3: CD79B (UniProt P40259 29-229, limits assumed)
T3 construct: whole, on cells
T3 sequence (looked up): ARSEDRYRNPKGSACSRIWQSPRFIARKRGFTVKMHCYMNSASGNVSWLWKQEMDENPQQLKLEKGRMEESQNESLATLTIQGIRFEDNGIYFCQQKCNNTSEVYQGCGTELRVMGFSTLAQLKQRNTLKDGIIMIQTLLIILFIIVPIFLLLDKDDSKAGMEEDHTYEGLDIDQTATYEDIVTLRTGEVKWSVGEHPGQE

B1: CD37 bridging molecule (E200 + CD37 binder, Otlertuzumab, B026) (Fab, V domains shown)
VH: EVQLVQSGAEVKKPGESLKISCKGSGYSFTGYNMNWVRQMPGKGLEWMGNIDPYYGGTTYNRKFKGQVTISADKSISTAYLQWSSLKASDTAMYYCARSVGPFDSWGQGTLVTVSS
VL: EIVLTQSPATLSLSPGERATLSCRASENVYSYLAWYQQKPGQAPRLLIYFAKTLAEGIPARFSGSGSGTDFTLTISSLEPEDFAVYYCQHHSDNPWTFGQGTKVEIKR
B2: CD19 BRIDGE variant B32 (Fab)
heavy: EVQLVESGGGLVKPGGSLKLSCAASGYTFTSYVMHWVRQAPGKGLEWIGYINPYNDGTKYNEKFQGRVTISSDKSISTAYMELSSLRSEDTAMYYCARGTYYYGTRVFDYWGQGTLVTVSSASTKGPSVFPLAPSSKSTSGGTAALGCLVKDYFPEPVTVSWNSGALTSGVHTFPAVLQSSGLYSLSSVVTVPSSSLGTQTYICNVNHKPSNTKVDKKVEPKSCHHHHHH
light: DFPGHNYTTRNILPGLNITSGSEPKSSDKTHTGGGGSDIVMTQSPATLSLSPGERATLSCRSSKSLQNVNGNTYLYWFQQKPGQSPQLLIYRMSNLNSGVPDRFSGSGSGTEFTLTISSLEPEDFAVYYCMQHLEYPITFGAGTKLEIKRTVAAPSVFIFPPSDEQLKSGTASVVCLLNNFYPREAKVQWKVDNALQSGNSQESVTEQDSKDSTYSLSSTLTLSKADYEKHKVYACEVTHQGLSSPVTKSFNRGEC
B3: CD19 BRIDGE variant B33 (Fab)
heavy: EVQLVESGGGLVKPGGSLKLSCAASGYTFTSYVMHWVRQAPGKGLEWIGYINPYNDGTKYNEKFQGRVTISSDKSISTAYMELSSLRSEDTAMYYCARGTYYYGTRVFDYWGQGTLVTVSSASTKGPSVFPLAPSSKSTSGGTAALGCLVKDYFPEPVTVSWNSGALTSGVHTFPAVLQSSGLYSLSSVVTVPSSSLGTQTYICNVNHKPSNTKVDKKVEPKSCHHHHHH
light: DFPGHNYTTRNILPGLNITSGGGGSEPKSSDKTHTGGGGSDIVMTQSPATLSLSPGERATLSCRSSKSLQNVNGNTYLYWFQQKPGQSPQLLIYRMSNLNSGVPDRFSGSGSGTEFTLTISSLEPEDFAVYYCMQHLEYPITFGAGTKLEIKRTVAAPSVFIFPPSDEQLKSGTASVVCLLNNFYPREAKVQWKVDNALQSGNSQESVTEQDSKDSTYSLSSTLTLSKADYEKHKVYACEVTHQGLSSPVTKSFNRGEC
B4: CD19 BRIDGE variant B35 (Fab)
heavy: EVQLVESGGGLVKPGGSLKLSCAASGYTFTSYVMHWVRQAPGKGLEWIGYINPYNDGTKYNEKFQGRVTISSDKSISTAYMELSSLRSEDTAMYYCARGTYYYGTRVFDYWGQGTLVTVSSASTKGPSVFPLAPSSKSTSGGTAALGCLVKDYFPEPVTVSWNSGALTSGVHTFPAVLQSSGLYSLSSVVTVPSSSLGTQTYICNVNHKPSNTKVDKKVEPKSCHHHHHH
light: DFPGHNYTTRNILPGLNITSTFHKTSGSGKGSEPKSSDKTHTGGGGSDIVMTQSPATLSLSPGERATLSCRSSKSLQNVNGNTYLYWFQQKPGQSPQLLIYRMSNLNSGVPDRFSGSGSGTEFTLTISSLEPEDFAVYYCMQHLEYPITFGAGTKLEIKRTVAAPSVFIFPPSDEQLKSGTASVVCLLNNFYPREAKVQWKVDNALQSGNSQESVTEQDSKDSTYSLSSTLTLSKADYEKHKVYACEVTHQGLSSPVTKSFNRGEC
B5: CD19 BRIDGE variant B34 (Fab)
heavy: EVQLVESGGGLVKPGGSLKLSCAASGYTFTSYVMHWVRQAPGKGLEWIGYINPYNDGTKYNEKFQGRVTISSDKSISTAYMELSSLRSEDTAMYYCARGTYYYGTRVFDYWGQGTLVTVSSASTKGPSVFPLAPSSKSTSGGTAALGCLVKDYFPEPVTVSWNSGALTSGVHTFPAVLQSSGLYSLSSVVTVPSSSLGTQTYICNVNHKPSNTKVDKKVEPKSCHHHHHH
light: DFPGHNYTTRNILPGLNITSTFHKTSGSGKEPKSSDKTHTGGGGSDIVMTQSPATLSLSPGERATLSCRSSKSLQNVNGNTYLYWFQQKPGQSPQLLIYRMSNLNSGVPDRFSGSGSGTEFTLTISSLEPEDFAVYYCMQHLEYPITFGAGTKLEIKRTVAAPSVFIFPPSDEQLKSGTASVVCLLNNFYPREAKVQWKVDNALQSGNSQESVTEQDSKDSTYSLSSTLTLSKADYEKHKVYACEVTHQGLSSPVTKSFNRGEC
B6: CD19 BRIDGE variant B36 (Fab)
heavy: EVQLVESGGGLVKPGGSLKLSCAASGYTFTSYVMHWVRQAPGKGLEWIGYINPYNDGTKYNEKFQGRVTISSDKSISTAYMELSSLRSEDTAMYYCARGTYYYGTRVFDYWGQGTLVTVSSASTKGPSVFPLAPSSKSTSGGTAALGCLVKDYFPEPVTVSWNSGALTSGVHTFPAVLQSSGLYSLSSVVTVPSSSLGTQTYICNVNHKPSNTKVDKKVEPKSCHHHHHH
light: DFPGHNYTTRNILPGLNITSTFHKTSGSGKGGGGSEPKSSDKTHTGGGGSDIVMTQSPATLSLSPGERATLSCRSSKSLQNVNGNTYLYWFQQKPGQSPQLLIYRMSNLNSGVPDRFSGSGSGTEFTLTISSLEPEDFAVYYCMQHLEYPITFGAGTKLEIKRTVAAPSVFIFPPSDEQLKSGTASVVCLLNNFYPREAKVQWKVDNALQSGNSQESVTEQDSKDSTYSLSSTLTLSKADYEKHKVYACEVTHQGLSSPVTKSFNRGEC
B7: CD79B bridging molecule (E200 + CD79B binder, Polatuzumab, B025) (Fab, V domains shown)
VH: EVQLVESGGGLVQPGGSLRLSCAASGYTFSSYWIEWVRQAPGKGLEWIGEILPGGGDTNYNEIFKGRATFSADTSKNTAYLQMNSLRAEDTAVYYCTRRVPIRLDYWGQGTLVTVSS
VL: DIQLTQSPSSLSASVGDRVTITCKASQSVDYEGDSFLNWYQQKPGKAPKLLIYAASNLESGVPSRFSGSGSGTDFTLTISSLQPEDFATYYCQQSNEDPLTFGQGTKVEIKR
B8: ROR1 bridging molecule (E200 + ROR-1 binder, clone D10v3, B044) (Fab, V domains shown)
VH: QVQLKESGPGLVAPSQTLSITCTVSGFSLTSYGVHWVRQPPGKGLEWLGVIWAGGFTNYNSALKSRLSISKDNSKSQVLLKMTSLQTDDTAMYYCARRGSSYSMDYWGQGTSVTVSS
VL: EIVLSQSPAITAASLGQKVTITCSASSNVSYIHWYQQRSGTSPRPWIYEISKLASGVPVRFSGSGSGTSYSLTISSMEAEDAAIYYCQQWNYPLITFGSGTKLEIQR

Assays:
[1] = target: T1, CD37; test: flow cytometry, JeKo-1 cells
[2] = target: T4, nfP2X7 CAR 1; test: flow cytometry, anti-His-FITC, MFI on EGFR+ (CAR+) over EGFR- (CAR-) T cells
T4 construct: CAR-positive cells gated by the co-expressed EGFR marker; also called nfP2X7 targeted CAR; nfP2X7 CAR on EGFR+ T cells
Summary of the method: (§1)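 CAR T cells incubated with BRiDGE variants at saturating concentrations; bound BRiDGE detected with anti-His-FITC by flow cytometry. EGFR marks CAR expression. Value is median fluorescence intensity on EGFR+ (CAR+) cells divided by that on EGFR− (CAR−) cells.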

[3] = target: T2, CD19; test: flow cytometry, JeKo-1 cells, bridge at saturating conc., BIL03s-AF647 detection
Method: (§2) JeKo-1 cells were incubated with different CD19 BRiDGE variants at saturating concentrations. […] The MFI intensity correlates with the number of secondary bound antibodies bound to the CD19 BRiDGE variants that are only detected if they are bound to the JeKo-1 cells. MFI: median fluorescence intensity. BLitz: Bio-Layer interferometry (BLI) technology using HIS-tag identification tips. […] The higher the MFIR, the stronger the binding.

[4] = target: T4, nfP2X7 CAR 1; test: flow cytometry, anti-His-FITC, MFI on EGFR+ (CAR+) T cells over background 0.44
Summary of the method: as §1

[5] = target: T2, CD19; test: flow cytometry, JeKo-1 cells, BIL03s-AF647 detection, MFI over no-bridge control
Method: as §2

[6] = target: T2, CD19; test: flow cytometry, JeKo-1 cells, bridge at saturating conc., anti-His-FITC detection
Method: as §2

[7] = target: T4, nfP2X7 CAR 1; test: flow cytometry, nfP2X7 CAR 1 T cells (EGFR+ gate), anti-His-FITC detection
[8] = target: T2, CD19; test: flow cytometry, JeKo-1 cells, anti-His-FITC detection, MFI over no-bridge control
Method: as §2

[9] = target: T3, CD79B; test: flow cytometry, JeKo-1 cells
[10] = target: T5, ROR1 (UniProt Q01973 30-937, limits assumed); test: flow cytometry, JeKo-1 cells
T5 construct: whole, on cells

Row | binding result [1] | HisTag MFI Ratio of EGFR+/EGFR- [2] | MFI Bil03 AF647 [3] | HisTag MFI Ratio (background 0.44) [4] | MFIR BIL03 AF647 [5] | MFI HisTag FITC [6] | MFI HisTag FITC in EGFR+ Population [7] | MFIR HisTag FITC [8] | binding result [9] | binding result [10] | Binder
1 | binds | – | – | – | – | – | – | – | – | – | B1
2 | – | 4 | 8.99 | 5.9 | 19.5 | 2.3 | 2.61 | 2.99 | – | – | B2
3 | – | 3.9 | 7.12 | 5.4 | 15.5 | 2.25 | 2.39 | 2.92 | – | – | B3
4 | – | 4.1 | 9.49 | 5.7 | 20.6 | 2.31 | 2.51 | 3 | – | – | B4
5 | – | 4.3 | 7.04 | 5.5 | 15.3 | 2.19 | 2.41 | 2.84 | – | – | B5
6 | – | 4.2 | 9.15 | 5.5 | 19.9 | 2.29 | 2.41 | 2.97 | – | – | B6
7 | – | – | – | – | – | – | – | – | binds | – | B7
8 | – | – | – | – | – | – | – | – | – | binds | B8
